These results are taken from patent US20190298770A1 (IOVANCE BIOTHERAPEUTICS, published 2019).

The target of assay [1] is T1, Programmed Death 1 Ligand 1 (PD-L1) (human, UniProt Q9NZQ7 19-290).
T1 construct: also called CD274; B7-H1
The assay can be described thus: flow cytometry of 293-PD-L1 stained with 10 fold concentrated supernatant of TIL line M1015, Alexa 647 anti-human Fcγ [panel C].

Assay [2] deals with T1, Programmed Death 1 Ligand 1 (PD-L1). The assay can be described thus: flow cytometry on EL4 PD-L1 cells, goat anti-human FITC, % of PD-L1 positive cells.

T1 sequence (Q9NZQ7 19-290): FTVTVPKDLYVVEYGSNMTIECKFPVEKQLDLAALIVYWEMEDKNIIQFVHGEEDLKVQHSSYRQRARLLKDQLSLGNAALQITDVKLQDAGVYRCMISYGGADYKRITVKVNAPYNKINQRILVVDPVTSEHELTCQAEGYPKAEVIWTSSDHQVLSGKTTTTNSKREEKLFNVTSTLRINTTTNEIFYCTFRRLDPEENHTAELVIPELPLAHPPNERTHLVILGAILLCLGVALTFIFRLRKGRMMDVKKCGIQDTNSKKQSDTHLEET

FMC63-scFV-Fc (Fc fusion) returned a % of cells in the upper left (PDL1 positive) quadrant in assay [1] of 1.02%.

B1: anti-PD-L1 ScFV clone 19H9 (scFv)
scFv: QVQLQESGGGLVKPGGSLRLSCAASGFTFSSYSMNWVRQAPGKGLEWVSGINTAGDTHYPESVKGRFTISRDNARNSLNLQMNSLRAEDTAVYYCVRERVEREYSGYDAFDIWGQGTTVTVSAGGGGSGGGGSGGGGSGAPNFMLTQPHSVSESLGKTVTISCTGSSGSIARKFVQWYQQRPGSSPTTVIYENNQRPSGVSDRFSGSIGSSSNSASLTISGLKTEDEADYYCQSYDSSNVVFGGGTKVTVL
notes: also called 19H9-scFV; scFV 19H9
As for B1, in assay [2], the binding result was “binds”.

B2: anti-PD-L1 ScFV clone 38A1 (scFv)
scFv: EVQLVESGGGLVQPGGSLRLSCAASGFTFSNYAMSWVRQAPGKGLEWVSTISGSGGTTYYADSVKGRFTISRDNSKNTLYLQMNSLRVEDTAVYYCAKDWFRSSSPDAFDIWGQGTTVTVSAGGGGSGGGGSGGGGSGAPSYVLTQPPSVSVAPGQTARITCGGNNIGRKIVHWYQQRPGQAPVLVIYYDTDRPAGIPERFSGSNSGNMATLTISTVGAGDEADYYCQVWDTGSDHVVFGGGTKLTVL
notes: also called 38A1-scFV; scFV 38A1
In the case of B2, the binding result in assay [2] was “binds”.
